A word on the % inhibition: it is the relative decrease from the control value, in per cent.

Experiment [1] addresses T1, recombinant human EGFR extracellular domain with 6xHis (human, UniProt P00533 25-645).
T1 construct: In-house produced; also called 6xHis EGFR ECD; soluble human EGFR ECD; not shown: 6xHis tag
Briefly: SPR competition, competitor Ab-1. As for the experimental part:
(§1) SPR analysis was performed on a Biacore 3000 machine containing four flow cells. A CM5 Biacore chip was conjugated with 10,000 Resonance units (Ru) polyclonal anti-His antibody to flow cells 1-4 according to the manufacturer's instructions. […] Immediately after antigen injection the maximal binding of the Anti-EGFR mAb without competition was established in each flow cell during a reference run. Briefly 5 μl antibody at a concentration of 40 μg/ml was injected over all flow cells with captured EGFR followed by stripping of the antibody/antigen complex with a low pH acid wash (10 sec. contact time with 10 mM Glycine-HCl, pH2). After the determination of Anti-EGFR antibody maximal binding to each flow cell, a competition run was performed during the same Biacore cycle. Flow cells were first saturated with EGFR ECD antigen followed by injection of different reference antibodies or Anti-EGFR antibodies into separate flow cells using the same antigen saturating conditions as outlined above. This step was immediately followed by a second injection of Anti-EGFR antibody over the flow cell saturated with EGFR antigen and competition antibody to minimize the dissociation of either antigen or blocking antibody. Then the antibody/antigen complexes were stripped off with a low pH acid wash (10 sec. contact time with 10 mM Glycine-HCl, pH 2) and the whole cycle beginning with the reference run was repeated with a new Anti-EGFR antibody. The degree of inhibition of tested Anti-EGFR antibodies were determined by comparing the Ru max value of the individual Anti-EGFR antibody before and after competition by introduction of report points recorded two seconds before and after injection of each sample.

Experiment [2] has as its target T1, recombinant human EGFR extracellular …. Briefly: SPR competition, competitor Ab-3. As for the experimental part:
as §1

The target is the same in experiment [3]. Briefly: SPR competition, competitor Ab-5. As for the experimental part: as §1
For experiment [4] the target is unchanged. Put plainly: SPR competition, competitor 1024. The method, then: as §1
Experiment [5] has the same target. Put plainly: SPR competition, competitor 1208. The method, then:
as §1

Experiment [6] has the same target. Briefly: SPR competition, competitor 1254. As for the experimental part:
as §1

For experiment [7] the target is unchanged. Put plainly: SPR competition, competitor 1257. As for the experimental part:
as §1

For experiment [8] the target is unchanged. Briefly: SPR competition, competitor 1260. The method, then: as §1
Experiment [9] shares this target. Put plainly: SPR competition, competitor 1261. The method, then: as §1
Experiment [10] has the same target. Put plainly: SPR competition, competitor 1277. The method, then: as §1
Experiment [11] has the same target. Put plainly: SPR competition, competitor 1284. The method, then: as §1
Experiment [12] shares this target. Briefly: SPR competition, competitor 1320. The method, then: as §1
Experiment [13] shares this target. Put plainly: SPR competition, competitor 1344. The method, then: as §1
Experiment [14] shares this target. Put plainly: SPR competition, competitor 1347. The method, then:
as §1

Experiment [15] shares this target. Put plainly: SPR competition, competitor Ab-10. As for the experimental part:
as §1

Experiment [16] has the same target. Put plainly: SPR competition, competitor Ab-11. The method, then:
as §1

Experiment [17] has the same target. Briefly: SPR competition, competitor ICR10. As for the experimental part:
as §1

Experiment [18] has the same target. Put plainly: SPR competition, competitor Erbitux. As for the experimental part:
as §1

The target is the same in experiment [19]. Put plainly: SPR competition, competitor Erbitux. The method, then:
as §1
The source holds these as a separate data set.

For experiment [20] the target is unchanged. Put plainly: SPR competition, competitor Vectibix. The method, then: as §1
Experiment [21] has the same target. Put plainly: SPR competition, competitor 1030corr. As for the experimental part:
as §1

For experiment [22] the target is unchanged. Briefly: SPR competition, competitor 992 corr. As for the experimental part: as §1
For experiment [23] the target is unchanged. Briefly: SPR competition, competitor Vectibix. As for the experimental part: as §1
This is another data set of the same source.

B1: antibody 1024 (antibody, human IgG1, kappa, V domains shown)
VH: QVQLQQPGAELVEPGGSVKLSCKASGYTFTSHWMHWVKQRPGQGLEWIGEINPSSGRNNYNEKFKSKATLTVDKSSSTAYMQFSSLTSEDSAVYYCVRYYGYDEAMDYWGQGTSVTVSS
VL: DIVMTQAAFSNPVTLGTSASISCRSSKSLLHSNGITYLYWYLQKPGQSPQLLIYQMSNLASGVPDRFSSSGSGTDFTLRISRVEAEDVGVYYCAQNLELPYTFGGGTKLEIKR
notes: Chimeric IgG1 kappa
Take B1: the “% inhibition” value in experiment [1] was 6%; in [2], 0%; in experiment [3] it was 0%; in experiment [4], 96%; in experiment [5], -7%; in experiment [6], 5%. The “% inhibition” value in experiment [7] is 22%; in experiment [8] it was 35%; in experiment [9] it was -27%; in experiment [10] it was -1%; in experiment [11], -2%; in experiment [12], 86%. The “% inhibition” value in [13] is 1%; in experiment [14], 2%; in [15] it was -5%; in experiment [16] it was -13%; in [17] it was -3%; in experiment [18] it was 104%. Also, the “% inhibition” value in [19] was 104%; in [20], 102%; in experiment [21], 3%; in [22] it was -58%; in [23], 82%.

B2: antibody 1030 (antibody, human IgG1, kappa, V domains shown)
VH: EVQLVESGGGLVKPGGSLKLSCAASGFTFSSYALSWVRQTPERRLEWVASISGVGSTYFPDSVKGRFTMSRDNARNILYLQMSSLRSEDTAMYYCARGSDGYFYAMDYWGQGTSVTVSS
VL: DIVLTQSPASLAVSLGQRATISCRASKSVSTSGYSFMHWYQLKPGQPPKLLIYLASNLESGVPARFSGSGSGTDFTLNIHPVEEEDAATYYCQHSREFPLTFGGGTKLEIKR
notes: Chimeric IgG1 kappa
Take B2: the “% inhibition” value in [1] is 98%; in [2] it was 6%; in experiment [3], 104%; in experiment [4], -1%; in [5] it was 112%; in experiment [6], 107%. In addition, the “% inhibition” value in experiment [7] turned out to be 5%; in [8], 16%; in experiment [9], 8%; in [10], 103%; in experiment [11] it was 32%; in [12], 4%. Also, the “% inhibition” value in experiment [13] was 24%; in [14] it was 6%; in experiment [15], 84%; in [16], -5%; in experiment [17], 54%; in experiment [18], -1%. Moreover, the “% inhibition” value in experiment [19] was -1%; in [20], 16%; in experiment [21] it was 89%; in [22], -3%; in experiment [23], 17%.

B3: antibody 992 (antibody, human IgG1, kappa, V domains shown)
VH: EVQLQQPGSELVRPGASVKLSCKASGYTFTSYWMHWVKQRPGQGLEWIGNIYPGSRSTNYDEKFKSKATLTVDTSSSTAYMQLSSLTSEDSAVYYCTRNGDYYVSSGDAMDYWGQGTSVTVSS
VL: DIQMTQTTSSLSASLGDRVTISCRTSQDIGNYLNWYQQKPDGTVKLLIYYTSRLHSGVPSRFSGSGSGTDFSLTINNVEQEDVATYFCQHYNTVPPTFGGGTKLEIKR
notes: Chimeric mouse/human IgG1 kappa; the VL entry includes the human kappa constant region
B3: the “% inhibition” value in experiment [1] is 99%; in experiment [2], 7%; in experiment [3], 1%; in [4], -55%; in [5] it was 109%; in experiment [6], 128%. For the same molecule, the “% inhibition” value is 16% in experiment [7]; -10% in experiment [8]; -13% in experiment [9]; 110% in [10]; 6% in [11]; -38% in experiment [12]. Also, the “% inhibition” value in experiment [13] was 9%; in [14], 7%; in experiment [15], -4%; in experiment [16] it was -3%; in experiment [17] it was -4%; in experiment [18], 90%. Further, the “% inhibition” value in experiment [19] was 90%; in experiment [20], 106%; in [21] it was -18%; in experiment [22] it was 96%; in experiment [23], 125%.

B4: antibody 1208 (antibody, human IgG1, kappa, V domains shown)
VH: EVQLVESGGGLVKPGGSLKLSCAASGFAFSSYDMSWVRQTPEKRLEWVAYIGSGDDNTHYPDSVKGRFTISRHNAKNTLYLQMSSLKSEDTAMYYCARQKYGNYGDTMDYWGQGTSVTVSS
VL: DVVMTQTPLSLPVSLGDQASISCRSSQSLVHSNGNTYLHWYLQKPGQSPKLLIYKVSNRFSGVPDRFSGSGSGTDFTLKISRVEAEDLGVYFCSQSTHVPTFGGGTKLEIKR
notes: Chimeric IgG1 kappa; also called clone 1208
For B4, the “% inhibition” value in experiment [1] was 37%; in [2], 5%; in [3], 66%; in [4], 3%; in [5], 78%; in [6], 33%. The “% inhibition” value in experiment [7] came to 9%; in experiment [8], 4%; in experiment [9], 13%; in experiment [10] it was 40%; in experiment [11] it was 4%; in [12], 30%. For the same molecule, the “% inhibition” value came out at 7% in experiment [13]; 4% in experiment [14]; 32% in experiment [15]; 4% in [16]; 5% in experiment [17]; 18% in experiment [18]. Besides, the “% inhibition” value amounted to 18% in experiment [19]; 29% in [20]; 27% in experiment [21]; 100% in experiment [22]; 25% in experiment [23].

The record behind these values is US20110135636A1 (SYMPHOGEN A S, published 2011).
